{"source": "patent US20230338553A1", "about": "(published 2023)", "target": "Prostate Stem Cell Antigen (PSCA) (human, UniProt O43653 12-83)", "sequence (O43653 12-83)": "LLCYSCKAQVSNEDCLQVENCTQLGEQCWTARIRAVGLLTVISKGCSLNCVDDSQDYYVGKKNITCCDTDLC", "assay": "flow cytometry (293T-PSCA cells)"}
{"binder": "scFv(h-AM1)-BAP (scFv, mono-biotinylated at the C-terminal BAP (Bio-Tag)) scFv: DAAQPARRARRTKLGTELGSEVQLLESGGGLVQPGGSLRLSCVASGFTFSSYTMSWVRQAPGKGLEWVSYIHNGGGHTYYADSVKGRFTISRDNSKNTLYLQMNSLRAEDTAVYYCTRRMYYGNSHWYFDVWGAGTRVTITSAKTTPPSVYGGGGSGGGGSGGGGSTNSDIQMTQSPSSLSASVGDRVTITCRTSQSISNYLNWYQQKPGKAPKLLIYYTLKLNSGVPSRFSGSGSGTDFTLTISSLQPEDFATYYCQQSKTLPWTFGGGTKLEIKRADAAPTVSGPEQKLISEEDLNSAVDMSGLNDIFEAQKIEWHEGAPSSHHHHHH", "values": [{"measurement": "Kd", "value": 0.744, "unit": "µM"}]}
{"binder": "scFv(AM1)-P-BAP (scFv, mono-biotinylated at the C-terminal P-BAP (PSTCD biotin acceptor domain) when produced in 293T-huBirA cells) scFv: DAAQPARRARRTKLGTELGSQVKLQESGGGLVQPGGSLKLSCVASGFTFSSYTMSWVRRTPEKRLEWVAYIHNGGGHTYYPDTIKGRFTISRDNAKNTLFLEMSSLKSEDTAMYYCTRRMYYGNSHWYFDVWGAGTSVTVSSAKTTPPSVYGGGGSGGGGSGGGGSTNSDIVMTQSPSSLSASLGDRVTINCRTSQDISNYLNWYQLTPDGTVKLLIYYTLKLNSGVPSRFSGSGSGTDYSLTINNLEKEDFATYFCQQSKTLPWTFGGGTKLEIKRADAAPTVSGPKLSSKLKVTVNGTAYDVDVDVDKSHENPMGTILFGGGTGGAPAPAAGGAGAGKAGEGEIPAPLAGTVSKILVKEGDTVKAGQTVLVLEAMKMETEINAPTDGKVEKVLVKERDAVQGGQGLIKIGDLELIEGSSGPEQKLISEEDLNSAVDHHHHHH", "values": [{"measurement": "Kd", "value": 16.6, "unit": "µM"}]}
